38 variants from the RNAGym collection of RNA variant scans (doi:10.1073/pnas.2313332121) can be followed below.

Variants at the floor of the assay were thinned out.

B1: TPR 5TU (parent)
chain: GGAUCUUCUCGAUCUAACAAAAAAGACAAAUCUGCCACAAAGCUUGAGAGCAUCUUCGGAUGCAGAGGCGGCAGCCUUCGGUGGCGCGAUAGCGCCAACGUUCUCAACUAUGACACGCAAAACGCGUGCUCCGUUGAAUGGAGUUUAUCAUG

The series covers variants of B1. As to the kind of experiment: polymerase ribozyme fitness, log enrichment relative to wild type (log ratio); higher = more active; in vitro selection for triplet polymerase activity. The essentials: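 Input and output libraries were sequenced on Illumina after a single in vitro selection round, run in triplicate on PCR-built, transcribed mutant libraries of each subunit of a heterodimeric triplet polymerase ribozyme. Selection annealed libraries to a biotinylated primer, the partner subunit and triplets, incubated them frozen at −7 °C, then gel-excised extended constructs for streptavidin-bead capture and RT-PCR. Genotypes with ≥10 input reads and ≥1 read per output were kept. Fitness is the logarithm, taken in base 2, of genotype enrichment divided by wild-type enrichment, using inverse-variance-weighted replicate averages.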
With GGAUCUUCUCGAGCUAACAAAAAAGACAAAUCUGCUACAAAGCUUGUGAGCAUCUUCGGAUGCAGAGGCGGCAGCCUUCGGUGACGCGAUAGCGCCAACGUUCUCAACUAUGACACGCAAAGCGCGUGCUCCGUUGAUUGGAGUUUAUCAUG, the “polymerase ribozyme fitness (log ratio)” value is no more than -4.2.
Then GGAUCUUCUCGAGCUAACAAAAAAGACAAAUCUGACACAAAGCUUGAGAACAUAUUCGGAUGCAGAGGCGGCAGCGUUCGGUGGCGGGUUAGCGCCAACGUUCUCACCUAUGACACGCAAAACGCGUGCUCCGUUGAAUGCAGUUUAUCAUG, with no more than -4.2; and GGAUCUUCUCGAGCUAACAAAAAAGACAAAUCUGCCACAAAGCUUGAGAGGAUCUUCGGAUGCAGAGGCGGCAGCCUUCGGUGGCGCGAUCGCGCCAACGUUCUCAACUAUGACACGCAAAACGCGUGCUCCGUUGAAUGGAGUUUAUCAUG, with no more than -4.2; and GGAUCUUCUCGAGGUAACAAAAAAGACAAAGCUGCCACAAAGCUUGAGAGCAUCUUCGGAUGCAGAGGCGGCAGCCUUCGGUGGCGCGAUAGCGCCAACGUUCUCAACUAUGACACGCAAAACGCGUGCUCCGUUGAAUGGAGUUUAUCAUG, with -1.43.
As for GGAUCUUCUCGAGCUAACAAAAAAGACAAAUCUGCCACAACGCUUGAGAGCAUCUUCGGAUGCAGAGGCGGCAGCCUUCGGUGGCGCGAUAGCGCUAACGUUCUCAUCUAUGACACGCAAAACGCGUGCUACAUUGAAUGGAGUUCAUCAUG, the figure is no more than -4.2.
With GGAUCUUCUCGAGCUAACAAAAAAGACAAAUCUGCCACAAAGCUUGACAGCAUCUUCGGAUGCAGAGGCGGCAGCCUUCGAUGGCGCGAUAGCGCAAACGUUCUCAACUAUGACACGCAAAACGCGUGCUCCGUUGAAUGGAGUUUAUCAUG, the “polymerase ribozyme fitness (log ratio)” value is no more than -4.2.
GGAUCUUCUCGAGCUAACAAAAAAGACAAAUCUGUCACAAAGCUUGAGAGCAUCUUCGGAUGCAGAGGCGGUAGCCUUCGGUGGCGCGAUAGCGCGAACGUUCUUAACUAUGACACGCAAAACGCGUGCUCCCUUGAAUGGAGUUUAUCAUG: the “polymerase ribozyme fitness (log ratio)” value is no more than -4.2.
As for GGAUCUUCUCGAGCUAACAAAAAAGACAAAUCUGCCACAAAGCUUGAGAGCAUCUUCGGAUGCAGAGGCGGCAGCCUUCGGUGGAGCGAUAGCGCCAACGUUCUCAACUAUGACACGCAAAACGCGUGCUCCGUUGAAUGGAGUUUAUCAUG, the figure is -2.23.
As for GGAUCUUCUCGAGCUAACAAAAAAGACAAAUCUGCCACAAAGCUUGAGAGCAUCUUCGGAUGCAGAGGCGGCAGCCUUCGGUGGUGCGAUAGCGCCAACGUUCUCAACUAUGACACGCAAAACGCGUGCUCCGUUGAAUGGAGUUUAUCAUG, the figure is -1.63; as for GGAUCUUCUCGAGCUAACAAAAAAGACAAAUCUGCCACAAAGCUUGCGAGCAUCUUCGGAUGCAGAGGCGGCAGCCUUCGGUGGCGCCAUUGCGCCAACGUUCUUAACUAUGACACGCAAAACGCGUGCUCCGUUGAAUGGAGUUUAUCAUG, no more than -4.2.
For the variant GGAUCUUCUCGAGCUAACAAAAAAGACAAAUCUGCCACAAAGCUUGAGAGCAUCUUCGGAUGCAGAGGCGGCAGCCUUCGGUGGUGCGAUAGCGCUAACAUUCUCAACUAUGACCCGCAAAACGCGUGCUCCGUUGAAUGGAGUUUAUCAUG, the “polymerase ribozyme fitness (log ratio)” value is no more than -4.2.
Then GGAUCUUCUCGAGCUAACAAAAAAGACAAAUCUGCCACAAAGCUUGAGAGCAUCUUAGGAUGCAGAGGCGGCAGCCUUCGGUGGCGCGAUAGCGCCAACGUUCUCAACUAUGACACGCAAAACGCGUGCUCCGUUGAAUGGAGUUUAUCAUG, with -0.243.
As for GGAUCUUCUCGAGCUAAGAAAAAAGACAAAUCUGCCACAAAGCUAGAGAGCAUCUUCGUAUGCAGAGGCGGCAGCCUUCGGUGGCGCGAUAGCGCCAACGUUCGCAACUAUGACACGCAAAACGCGUGCUCCGCUGAAUUGAGAUUAUCAUG, the figure is no more than -4.2; as for GGAUCUUCUCGAGCUAACAAAAAAGACAAAUCUGCCACAAAGCUUGAGAGCGUCUUCGGAUGCAGAGGCGGCAGCCUUCGGUGGCGCGAUAGCGCCAACGUUCUCAACUAUGACACGCAAAACGCGUGCUCCGUUGAAUGGAGUUUAUCAUG, -1.06; as for GGAUCUUCUCGAGCUAACAAAAAAGACAAAUCUGCCAAAAAGCUUGAGAGCAUCUUCGGAUGCAGAGGCGGCAGCCUUCGGUGGCGCGAUAGGGCCAACGUUCUCAACUAUGACAGGCAAAGCGCGUGCUCCGUUGAAUGGAGUUUAUCAUG, no more than -4.2.
Then GGAUCUUCUCGAGCUAACAAAAAAGACAAAUCUGCCACAAAGCUUGAGAGCAUCUUCGGAUGCAGAGGCGGCAGCCUUCGGUGGCGCGAUAGCGCUUACGUUCUCAACUAUGACACGCAAAACGCGUGCUCCGUUGUAUGGAGUUUAUCAUG, with no more than -4.2.
Consider GGAUCUUCUCGAGGUAACAAAAAAGACAAAACUGCCACAACGCUUGAGAGCAUCUUCGGAUGCAGAGGCGGCAGCCUUCGGUGGCACGAGAGCGCCAACAUUCUCAACUAUGACACGCAAAACGCGUGCUACGUUGAAUGGAGUUUAUCAUG, for which the “polymerase ribozyme fitness (log ratio)” value was no more than -4.2.
Take GGAUCUUCUCGAGGUAACAAAAAAGACAAAUCUGCCACAAAGCUUGAGAGCAUCUUAGGAUGCAGAGGCGACAGCCUUCGGUGGCGCGAUAGCGCCAACGGUCUCAACUAUGACACGCAAAACACGUGCUCCGUUGAAUGAAGUUUAUCAUG: the “polymerase ribozyme fitness (log ratio)” value was no more than -4.2.
As for GGAUCUUCUCGAGCUAACAAAAAAGACAAAUCUGACACAAAGCUUGAGAGCCUCUUCGGAUGCAGAGGCGGCAGCCUUCGGUGGCGCGAUAGCGCCAACGUUCUCAACUAUGACACGCAAAACGCGUGCUCCGUUGAAUGGAGUUUAUCAUG, the figure is no more than -4.2; as for GGAUCUUCUCGAGCUAACAAAAAAGACAAAUCUGCCACAAAGCUUGAGAGCAUCUUCGGAUGCAGAGGCGGCAGCCUUCGGUGGCGUGAUAGCGCCAACGUUCUCAACUAUGACACGCAAAACGCGUGCUCCGUUGAAUGGAGUUUAUCAUG, -1.62.
Regarding GGAUCUUCUCGAGCUAACAAAAAAGACAAAUCUGCCACAACGCUUGAGAGCAUCGUCGGAUGCAGAGGCGGCAGCCUUCGGUGGCGCGAUAGCCCCAACGUUCUCAACUAUGACAAGCAAAACGCGUGCUCCGUUGAAUGGAUUUUAUCAGG, the “polymerase ribozyme fitness (log ratio)” value is no more than -4.2.
As for GGAUCUUCUCGAGCUAACAAAAAAGACAAAUCUGCCAUAAAGCUUGAGAGCAUCUUCGGAUGUAGAGGCGGCAGCUUUCGGUGGCGCGAUGGGGUCAACGUUCUCAACUAUGACACGCAAAACGCGUGCUCCGUUGAAUGGAGUUUAUUAUG, the figure is no more than -4.2.
Then GGAUCUUCUCGAGCUAACAAAAAAGACAAAUCUGCCACAUAGCUUGAGAGCAUCUUCGGAUGCAGAGGCGGCAGCCUUCGGUGGCGCGAUAGCGCGAACGUUCUCAACUAUGACACGCAAGACGCGUGCUCCGUUGAAUGGAGUUUAUCAUG, with -2.57; and GGAUCUUCUCGAGCUAACAAAAAAGACAAAUCUGCCACAAAGCUUGAGAGCAUCUUCAGAUGCAGAGGCGGCAGCCUUCGGUGGCGCGAUAGCGUGAACGUUCUCAACUAUGACACGCAAAACGCGUGCUCCGUUGAAUGGAGUUUAUCAUG, with -4.19; and GGAUCUUCUCGAGCUAACAAAAAAGACAAAUCUGCCACAAAGCUUGAGUGCAUCUUCGGAUGCAGAGGCGGCAGCCUUCGGUGGCGCGAUAGCGCCAACGUUCUCAACUAUGACACGCAAAACGCGUGCUCCGUUGAAUGGAGUUUAUCAUG, with -2.21.
Then GGAUCUUCUCGAGCUAACAAAAAAGACAAAUCUGCCACAAAACUUGAGAUCAUCUUCGGAUGCAGAGGCGGCAGCAUUCGGUGGCCCGAUAGCGCCAACGUUCUCAACUAUGACACGCAAAACGCGUGCUCAGUUGAAUGGAGUUUAUCAUG, with no more than -4.2; and GGAUCUUCUCGAGCUAACAAAAAAGACAAAUCUGCCACAAAGCUUCAGAGCAUUUUCGGAUGCAGAGGCGGCAGCCUUCGGUGGCGCGAUAUCGCCAACGUUCUCAACUAUGACACGCAAAACGCGUGCUCCGUUGAAUGGAGUUUAUCAUG, with -3.24.
As to GGAUCUUCUCGAGCUAACAAAAAAGACAAAUCUGCCACAAAGCUUGAGAGCAUCUUCGGAUGCAGAGGCGGCAGCCUUCGGUGGUGCGAUAGCGCCAAUGUUCUCAACUAUGACACGCAAAACGCGUCCUCUGUUGAAUGGAGUUUAUCAUG, the “polymerase ribozyme fitness (log ratio)” value was no more than -4.2.
Then GGAUCUUCUCGAGCUAACAAAAAAGACAAAUCUGCCACAAAGCUUGAGAGCAUCUUCGGAUGCAGAGGCGGCAGCCUUCGGUGGCGCGAUAGCGCCAACGUUAUCAACUAUGACACGCAAAACGCGUGCUCCGUUGAAUGGAGUUUAUCAUG, with -2.97.
Then GGAUCUUCUCGAGCUAACAAAAAAGACAAAUCUGCCACAAGGCUUGAGAGCAUGUUCGGAUGCAGAGGCGGCAGCCUUCGAUGGCGCGAUAGCGCGAACGUUCUCAACUAUGACACGUAAAACGCGUGCUCCGUUGAAUGGAGUUUAUCAUG, with no more than -4.2; and GGAUCUUCUCGAGCUAACAAAAAAGACAAAUCUGCCACAAAGCUUGAGAGCAUGUUCGGAUGCAGAGGCGGCAGCCUUCGGUGGCGCGAUAGCGCCAACGUUCUCAACUAUGACACGCAAAACGCGUGCUCCGUUGAAUGGAGUUUAUCAUG, with -3.62; and GGAUCUUCUCGAGCUAACAAAAAAGACAAAUCUGCCACAAAGCUUGGGAGCAUCAUCGGAUGCAGAGGCGGCAGCCUUCGGUGGCGUGAUAGCGCUAACGUUCUCAACUAUGACACGCAAAACGCGUGCUCCGUUGAAGGGAGUUUAUCAUG, with no more than -4.2.
As for GGAUCUUCUCGAGCUAACAAAAAAGACAAAUCUGCCACAAAGCUUGAGAGCAUCUUCGGAUGCAGAGGCGGCAGCCUUCGGUGGCGCGAUAGCGCCAACGUUCUCGACUAUGACACGCAAAACGCGUGCUCCGUUGAAUGGAGUUUAUCAUG, the figure is -1.5.
GGAUCUUCUCGAGCUAACAAAAAAGACAAAUCUGCCACAAAGCUUGAGAGCAUCUUCGGAUGCAGAGGCGGCAGACUUCGGUGGCGCGAUAGCGCCAACGUUCUCAAGUAUGACACGCAAAACGCGUGCUCCGUUGAAUGGAAUUUAUCAUG: the “polymerase ribozyme fitness (log ratio)” value was no more than -4.2.
Then GGAUCUUCUCGAGCUAACAAAAAAGACAAAUCUGCAACAAAGCUUGAGAGCAUCUUCGGAUGCAGAGGCGGCAGCCUUCGGUGGUGCGAUAGCGCCAACGUUCUCAACUAUGACUCGCAAAACGCGUGCUCCGUUGAACGGAGUUUAUCAUG, with no more than -4.2.
As for GGAUCUUCUCGAGCUAACAAAAAAGACAAAUCUGCCACAAAGCUUGAGAGCAUCUUCGGAUGCAGAGGCGGCAGCCUUCGGUGGCGCGAUAGCGCCAACGUUCUCAACUAUGACACGCAAACCGCGUGCUCCGUUGAAUGGCGUUUAUCAUG, the figure is -2.05; as for GGAUCUUCUCGAGCUAACAAAAAAGACAAAUCUGCCACAUAGCUUGAGAGCAUCUUCGGCUGCAGAGGCGGCAGCCUUCGGUGGCGCGAUAGCGCCAACGUUCUCAACUAUGACACGCAAAACGCGUGCUCCGUUGAAUGGAGUUUAUCAUG, no more than -4.2; as for GGAUCUUCUCGAGCUAACAAAAAAGACAAAUCUGCCACAAAGCUUGAGAGCAUCUUCGGAUGCAGAGGCGGCAGCCUUCGGUGGCGCGAUAGCGCAAACGUUCUCAACUAUGACACGCAAAACGCGUGCUCCGUUGAAUGGAGUUUAUCAUG, -0.681.
